Where a chain is given by its changes, count along the chain named. Names and notes keep the numbering of the source. Blank lines part the entries; values can stand above or below the binder they belong to.
What was measured:
[1] = target: T1, Rho (transcription termination factor) (Escherichia coli, UniProt P0AG30 1-419); experiment: fluorescence anisotropy; 5 mM Mg2+; no Rof; PBS binding; Anisotropy: 20 mM Na-HEPES pH 7.5, 150 mM KCl, 5% glycerol, 5 mM MgCl2, 0.5 mM TCEP; 5 µM FAM-dC15 or 2 µM FAM-rU12; temperature not stated; conditions: protein: recombinant; chain copies: 6; label: 5'-FAM; single strand
[2] = target: Rho R88E (Escherichia coli, UniProt P0AG30 1-419, R88E); experiment: analytical SEC; Anisotropy: 20 mM Na-HEPES pH 7.5, 150 mM KCl, 5% glycerol, 5 mM MgCl2, 0.5 mM TCEP; 5 µM FAM-dC15 or 2 µM FAM-rU12; temperature not stated; conditions: protein: recombinant; chain copies: 6; boxB hairpin
[3] = target: Rho F89S (Escherichia coli, UniProt P0AG30 1-419, F89S); experiment: as above; conditions: protein: recombinant; chain copies: 6; boxB hairpin
[4] = target: T1, Rho (transcription termination factor); experiment: cryo-EM; ADP-BeF3; closed ring, 2.9 Å; Anisotropy: 20 mM Na-HEPES pH 7.5, 150 mM KCl, 5% glycerol, 5 mM MgCl2, 0.5 mM TCEP; 5 µM FAM-dC15 or 2 µM FAM-rU12; temperature not stated; conditions: protein: recombinant; chain copies: 6; boxB hairpin
[5] = target: T1, Rho (transcription termination factor); experiment: fluorescence anisotropy; 2 mM ADP-BeF3, 10 µM unlabeled dC15 blocking PBS; SBS binding / ring closure; Anisotropy: 20 mM Na-HEPES pH 7.5, 150 mM KCl, 5% glycerol, 5 mM MgCl2, 0.5 mM TCEP; 5 µM FAM-dC15 or 2 µM FAM-rU12; temperature not stated; conditions: protein: recombinant; chain copies: 6; label: 5'-FAM; single strand
[6] = target: T2, Transcription termination factor ρ K115E (E. coli) (E. coli, UniProt P0AG30 1-419, K115E); experiment: SEC; analytical SEC, Superdex S200 PC 3.2 column, 5 µM ρ and 90 µM Rof/variants mixed in reaction buffer (20 mM Tris-HCl pH 8.0, 120 mM KOAc, 5 mM Mg(OAc)2, 2 mM DTT), 32 °C 10 min, run at 4 °C; fractions analysed by SDS-PAGE; conditions: both partners purified
T2 construct: Transcription termination factor Rho, E. coli, with K115E

[7] = target: T3, Transcription termination factor ρ F89S (E. coli) (E. coli, UniProt P0AG30 1-419, F89S); experiment: as above; conditions: both partners purified
T3 construct: Transcription termination factor Rho, E. coli, with F89S

[8] = target: Transcription termination factor ρ, wild type (E. coli) (E. coli, UniProt P0AG30 1-419); experiment: cell-based or functional assay

Binder: CCCCCCCCCCCCCCC (ssDNA) [dC15]
Kd [1]: 1000 nM

B1: rut RNA (lambda tR1) (structured_RNA)
RNA: GGGAUAACCCCGCUCUUACACAUUCCAGCCCUGAAAAAGGGCAUCAAAUUAAACCACACCUAUGGUGUAUGUCAAAUUAAACCACA
binding result [2]: no binding
binding result [3]: binds
binding result [4]: binds

Binder: UUUUUUUUUUUU (ssRNA) [rU12]
binding result [5]: binds

binding result [6]: binds
binding result [7]: binds
B2: Rof, wild type, tag-less (E. coli) (natural protein)
chain: MNDTYQPINCDDYDNLELACQHHLMLTLELKDGEKLQAKASDLVSRKNVEYLVVEAAGETRELRLDKITSFSHPEIGTVVVSES
notes: Rof (YaeO), E. coli; codon-optimised rof gene; the C-terminal residue is printed as S84 (84-residue form); the residue numbers used (I8 to S84) fit the 84-residue form; also called Rof^wt; ecRof; source: E. coli RIL (BL21), purified (Ni2+-NTA, TEV protease, Superdex 75)

transcripts terminated by ρ in vitro (λ tR1 template; 25 nM ρ, 5 µM Rof variant); 87% in the absence of Rof [8]: 86%
B3: Rof D14A (E. coli) (natural protein)
chain: B2 chain with D14A

transcripts terminated by ρ in vitro (λ tR1 template; 25 nM ρ, 5 µM Rof variant); 87% in the absence of Rof [8]: 25%
B4: Rof E17A (E. coli) (natural protein)
chain: B2 chain with E17A

transcripts terminated by ρ in vitro (λ tR1 template; 25 nM ρ, 5 µM Rof variant); 87% in the absence of Rof [8]: 90%
B5: Rof Y13A (E. coli) (natural protein)
chain: B2 chain with Y13A

— article PMC11018626, “Sm-like protein Rof inhibits transcription termination factor ρ by binding site obstruction and conformational insulation” (Nature Communications, 2023)
